Data from paper PMC11931385, “Structural and functional analysis of cancer-associated missense variants in the retinoblastoma protein pocket domain” (The Journal of Biological Chemistry, 2025).
No end group written: not given here. TMR = tetramethyl rhodamine dye

T1: Rb^P E554K (human, UniProt P06400 380-788, E554K)
T1 construct: also called variant 28
T1 sequence (looked up): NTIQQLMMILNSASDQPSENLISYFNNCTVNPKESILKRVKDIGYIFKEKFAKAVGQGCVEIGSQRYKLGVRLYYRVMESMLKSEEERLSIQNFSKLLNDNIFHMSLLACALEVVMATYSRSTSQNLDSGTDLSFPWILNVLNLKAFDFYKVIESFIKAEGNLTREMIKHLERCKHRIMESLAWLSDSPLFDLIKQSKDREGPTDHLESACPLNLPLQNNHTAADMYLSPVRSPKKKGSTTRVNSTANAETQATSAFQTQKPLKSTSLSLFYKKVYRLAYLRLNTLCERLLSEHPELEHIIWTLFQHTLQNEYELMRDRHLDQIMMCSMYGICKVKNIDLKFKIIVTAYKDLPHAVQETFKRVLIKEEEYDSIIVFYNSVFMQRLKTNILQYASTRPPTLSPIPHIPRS

T2: Rb^P H585Y (human, UniProt P06400 380-788, H585Y)
T2 construct: also called variant 33
T2 sequence (looked up): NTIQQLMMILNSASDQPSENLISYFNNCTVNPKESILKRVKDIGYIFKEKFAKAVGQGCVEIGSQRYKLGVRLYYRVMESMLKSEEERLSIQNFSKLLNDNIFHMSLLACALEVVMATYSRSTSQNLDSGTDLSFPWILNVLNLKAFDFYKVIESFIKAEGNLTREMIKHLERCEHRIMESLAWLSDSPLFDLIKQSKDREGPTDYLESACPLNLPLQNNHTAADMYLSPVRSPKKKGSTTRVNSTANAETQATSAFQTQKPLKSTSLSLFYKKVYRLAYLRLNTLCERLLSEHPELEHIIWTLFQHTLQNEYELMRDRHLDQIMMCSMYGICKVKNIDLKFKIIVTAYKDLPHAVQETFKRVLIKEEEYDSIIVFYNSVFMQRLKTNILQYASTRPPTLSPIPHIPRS

T3: Rb^P R451S (human, UniProt P06400 380-788, R451S)
T3 construct: also called variant 7
T3 sequence (looked up): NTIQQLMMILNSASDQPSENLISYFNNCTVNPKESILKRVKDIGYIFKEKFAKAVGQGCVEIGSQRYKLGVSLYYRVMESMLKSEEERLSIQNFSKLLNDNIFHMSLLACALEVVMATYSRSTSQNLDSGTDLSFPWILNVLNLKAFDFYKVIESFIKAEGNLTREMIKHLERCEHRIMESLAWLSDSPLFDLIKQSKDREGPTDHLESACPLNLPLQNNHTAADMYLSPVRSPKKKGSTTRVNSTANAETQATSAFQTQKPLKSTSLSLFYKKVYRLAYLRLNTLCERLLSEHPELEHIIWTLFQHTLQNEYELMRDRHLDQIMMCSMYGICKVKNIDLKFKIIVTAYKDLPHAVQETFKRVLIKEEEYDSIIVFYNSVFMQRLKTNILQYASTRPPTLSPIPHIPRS

T4: Rb^P R621P (human, UniProt P06400 380-788, R621P)
T4 construct: also called variant 43
T4 sequence (looked up): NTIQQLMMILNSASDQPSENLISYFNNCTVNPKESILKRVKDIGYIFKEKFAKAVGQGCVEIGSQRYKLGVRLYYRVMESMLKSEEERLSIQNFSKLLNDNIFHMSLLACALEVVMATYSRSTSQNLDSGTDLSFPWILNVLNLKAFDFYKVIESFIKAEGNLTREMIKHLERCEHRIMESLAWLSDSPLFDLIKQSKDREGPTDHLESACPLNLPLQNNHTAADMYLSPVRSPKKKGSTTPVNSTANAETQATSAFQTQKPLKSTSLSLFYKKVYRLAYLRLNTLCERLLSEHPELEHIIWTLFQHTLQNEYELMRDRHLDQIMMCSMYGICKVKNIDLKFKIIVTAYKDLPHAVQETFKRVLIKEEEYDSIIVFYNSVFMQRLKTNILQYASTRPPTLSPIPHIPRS

T5: Rb^P S648T (human, UniProt P06400 380-788, S648T)
T5 construct: also called variant 46
T5 sequence (looked up): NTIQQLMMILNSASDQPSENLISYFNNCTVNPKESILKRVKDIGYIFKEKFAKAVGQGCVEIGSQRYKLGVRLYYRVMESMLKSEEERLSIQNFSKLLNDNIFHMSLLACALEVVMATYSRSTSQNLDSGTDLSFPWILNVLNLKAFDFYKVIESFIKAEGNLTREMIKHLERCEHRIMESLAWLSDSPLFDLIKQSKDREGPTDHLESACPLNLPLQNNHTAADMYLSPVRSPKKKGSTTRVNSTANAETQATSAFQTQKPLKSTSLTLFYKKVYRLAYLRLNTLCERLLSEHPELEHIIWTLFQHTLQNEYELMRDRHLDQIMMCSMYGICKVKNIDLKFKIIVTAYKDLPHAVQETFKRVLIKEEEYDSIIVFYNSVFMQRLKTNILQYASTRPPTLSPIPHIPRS

B1: TMR-E2F1^TD, peptide of the E2F1 transactivation domain (peptide)
peptide: {TMR}-GEGIRDLFDCDFGDLTPLD
notes: also called E2F^TD; source: synthetic peptide, bought: GenScript
B2: TMR-E7^LxCxE, LxCxE peptide of the E7 oncoprotein from HPV (peptide)
peptide: DLYCYEQLN
modifications: also: TMR label, position not given here
notes: source: synthetic peptide, bought: GenScript

How the values were obtained:
Experiment in all cases: fluorescence polarisation; 37 °C, after the 25 °C reading ramped over 7 min to 37 °C and 2 min incubation; unlabeled Rb^P against 1.5 nM TMR-E2F1^TD or 7.5 nM TMR-E7^LxCxE; 25 mM Tris pH 8.0, 200 mM NaCl, 1 mM DTT, 0.1% Tween-20; apparent Kd
Details in all cases: both partners purified
Rb^P E554K = biological target: T1, Rb^P E554K
Rb^P H585Y = biological target: T2, Rb^P H585Y
Rb^P R451S = biological target: T3, Rb^P R451S
Rb^P R621P = biological target: T4, Rb^P R621P
Rb^P S648T = biological target: T5, Rb^P S648T

Row | Binder | Kd (Rb^P E554K) [nM] | Kd (Rb^P H585Y) [nM] | Kd (Rb^P R451S) [nM] | Kd (Rb^P R621P) [nM] | Kd (Rb^P S648T) [nM]
1 | B1 | 3270 | 92 | 44 | 83 | 58
2 | B2 | 48 | 18 | 17 | 32 | 14
